pKi: −log10 of the molar value.

Among the data in paper doi:10.1101/2024.05.01.592117 are fold reduction in affinity against the 40S alone, percent binding compared to the 40S (lane 2) and Ki values, retold here.

For test [1], the target named is 40S small ribosomal subunit (salt-washed, purified) (human) (UniProt P23396). Briefly: fluorescence polarisation.
For test [2], the target named is 43S preinitiation complex (40S + eIFs 1, 1A, 5, 3j, eIF2-TC and eIF3) (human) (UniProt P23396). As to the kind of experiment: fluorescence polarisation.
The target is the same in test [3]. As to the kind of experiment: native gel or EMSA.

Sequence of fluorescence-labeled Pdcd4-NTD (FL-Pdcd4-NTD, residues 1-156) (Q53EL6 1-156): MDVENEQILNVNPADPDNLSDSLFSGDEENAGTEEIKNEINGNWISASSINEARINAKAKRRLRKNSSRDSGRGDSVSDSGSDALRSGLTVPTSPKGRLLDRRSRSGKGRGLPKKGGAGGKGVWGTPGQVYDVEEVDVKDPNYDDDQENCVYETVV
Sequence of fluorescence-labeled full-length Pdcd4 (FL-Pdcd4) (Q53EL6 whole entry): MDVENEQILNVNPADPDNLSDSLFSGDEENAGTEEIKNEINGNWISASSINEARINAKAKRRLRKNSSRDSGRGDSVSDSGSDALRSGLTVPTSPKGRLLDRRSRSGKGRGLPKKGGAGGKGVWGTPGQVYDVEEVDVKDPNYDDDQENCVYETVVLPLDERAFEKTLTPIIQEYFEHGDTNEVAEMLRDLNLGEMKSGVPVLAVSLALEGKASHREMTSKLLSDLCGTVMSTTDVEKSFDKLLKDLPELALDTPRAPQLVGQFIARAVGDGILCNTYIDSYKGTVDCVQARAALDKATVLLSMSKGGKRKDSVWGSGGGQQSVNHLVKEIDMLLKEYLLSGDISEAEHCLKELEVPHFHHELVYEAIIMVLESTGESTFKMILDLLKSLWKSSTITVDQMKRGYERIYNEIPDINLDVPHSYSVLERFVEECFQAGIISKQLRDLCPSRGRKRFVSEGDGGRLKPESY
Sequence of Pdcd4 (programmed cell death 4), wild type, residues 1-469 (Q53EL6 whole entry, the tested form may be a part): as the sequence (Q53EL6 whole entry) above
Sequence of Pdcd4-NTD (residues 1-156), unlabeled (Q53EL6 1-156): as the sequence (Q53EL6 1-156) above

Take “fluorescence-labeled Pdcd4-NTD (FL-Pdcd4-NTD, residues 1-156) (from UniProt Q53EL6 1-156) (domain or fragment)”: the fold reduction in affinity against the 40S alone in test [1] is more than 10 fold; in test [2] it was more than 100 fold. Besides, the percent binding compared to the 40S (lane 2) in test [3] is less than 20%.
As to “fluorescence-labeled full-length Pdcd4 (FL-Pdcd4) (from UniProt Q53EL6 1-469) (natural protein)”, the percent binding compared to the 40S (lane 2) in test [3] is less than 20%.
With “Pdcd4-NTD (residues 1-156), unlabeled (from UniProt Q53EL6 1-156) (domain or fragment)”, the pKi in test [1] is 7.68.
On to “Pdcd4 (programmed cell death 4), wild type, residues 1-469 (from UniProt Q53EL6 1-469) (natural protein)”, for which the pKi in test [1] is 7.64.
